Test results: patent US20090060908A1 (Bristol-Myers Squibb, published 2009)
One block for each binder: values may come before it.

Columns and labels:
[1] = biological target: T1, prostate specific membrane antigen (PSMA) on LNCaP cells (human, UniProt Q04609 1-750); assay: cell-based or functional assay
[2] = biological target: T1, prostate specific membrane antigen …; assay: cell-based or functional assay; remark: listed apart in the source

T1 sequence (Q04609 whole entry): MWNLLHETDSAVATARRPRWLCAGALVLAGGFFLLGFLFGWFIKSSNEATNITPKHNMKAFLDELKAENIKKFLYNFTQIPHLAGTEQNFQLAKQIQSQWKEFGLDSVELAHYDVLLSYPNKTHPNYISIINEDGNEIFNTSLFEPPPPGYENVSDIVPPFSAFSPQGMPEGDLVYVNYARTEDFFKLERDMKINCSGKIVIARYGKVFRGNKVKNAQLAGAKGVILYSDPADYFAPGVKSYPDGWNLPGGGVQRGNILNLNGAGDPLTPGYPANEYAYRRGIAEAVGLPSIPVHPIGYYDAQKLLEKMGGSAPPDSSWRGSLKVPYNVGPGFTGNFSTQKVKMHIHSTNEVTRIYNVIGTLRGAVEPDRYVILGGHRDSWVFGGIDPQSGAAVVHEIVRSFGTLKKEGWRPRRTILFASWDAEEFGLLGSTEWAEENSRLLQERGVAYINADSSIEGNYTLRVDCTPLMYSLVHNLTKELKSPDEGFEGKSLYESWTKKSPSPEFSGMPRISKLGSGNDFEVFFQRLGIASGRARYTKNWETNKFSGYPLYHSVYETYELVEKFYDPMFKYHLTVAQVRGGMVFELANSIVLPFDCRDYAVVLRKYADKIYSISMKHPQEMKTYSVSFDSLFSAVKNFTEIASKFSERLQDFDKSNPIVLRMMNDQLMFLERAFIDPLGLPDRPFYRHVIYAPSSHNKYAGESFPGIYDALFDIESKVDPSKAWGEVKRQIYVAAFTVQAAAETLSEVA

B1: anti-PSMA fully human monoclonal antibody 2A10 expressed in CHO DG44 cells (fucosylated) (antibody, V domains shown)
VH: EVQLVQSGAEVKKPGESLKISCKGSGYSFTSNWIGWVRQMPGKGLEWMGIIYPGDSDTRYSPSFQGQVTISADKSISTAYLQWSSLKASDTAMYYCARQTGFLWSSDLWGRGTLVTVSS
VL: AIQLTQSPSSLSASVGDRVTITCRASQDISSALAWYQQKPGKAPKLLIYDASSLESGVPSRFSGYGSGTDFTLTINSLQPEDFATYYCQQFNSYPLTFGGGTKVEIK
modifications: N-linked glycans containing fucose
ADCC % lysis at 1 µg/ml antibody, no anti-CD16 antibody [1]: ~12%
ADCC EC50 (µg/ml) Fucosylated, Expt. #1 (IL-2 stimulated effector cells, LNCaP-C42b targets) [2]: 0.08 µg/mL
ADCC EC50 (µg/ml) Fucosylated, Expt. #2 (IL-2 stimulated effector cells, LNCaP-C42b targets) [2]: 0.026 µg/mL
ADCC EC50 (µg/ml) Fucosylated, Expt. #3 (fresh human peripheral blood effector cells, LNCaP-C42b targets) [2]: 0.036 µg/mL

B2: anti-PSMA fully human monoclonal antibody 2A10 expressed in FUT8-/- Ms704 cells (defucosylated) (antibody, IgG1, V domains shown)
VH: B1 VH
VL: B1 VL
modifications: N-linked glycans without fucose residues
ADCC % lysis at 1 µg/ml antibody, no anti-CD16 antibody [1]: ~37%
ADCC EC50 (µg/ml) Defucosylated, Expt. #1 (IL-2 stimulated effector cells, LNCaP-C42b targets) [2]: 0.007 µg/mL
ADCC EC50 (µg/ml) Defucosylated, Expt. #2 (IL-2 stimulated effector cells, LNCaP-C42b targets) [2]: 0.009 µg/mL
ADCC EC50 (µg/ml) Defucosylated, Expt. #3 (fresh human peripheral blood effector cells, LNCaP-C42b targets) [2]: 0.002 µg/mL
ADCC EC50 Ratio (fucosylated to defucosylated 2A10), Expt. #1 [2]: 11.4 ratio
ADCC EC50 Ratio (fucosylated to defucosylated 2A10), Expt. #2 [2]: 2.9 ratio
ADCC EC50 Ratio (fucosylated to defucosylated 2A10), Expt. #3 [2]: 18 ratio

Second part, led by results:

ADCC % lysis at 1 µg/ml antibody, no anti-CD16 antibody [1]: ~38%
ADCC EC50, 51Cr release, LNCaP-C42b targets, IL-2 stimulated effector cells [1]: 0.018 µg/mL
ADCC EC50 fold difference against CHO-expressed 7F12 [1]: ~6 fold lower
B3: anti-PSMA human monoclonal antibody 7F12 expressed in eggs of chimeric chickens (lacks fucose residues) (antibody, IgG1, V domains shown)
VH: AVQLVQSGAEVKKPGESLKISCKGSGYSFTSFWIGWARQMPGKGLEWMGIIYPGDSDTRYSPSFQGQVTISADKSISTAYLQWSSLKASDTAMYYCATANSSFWNFDLWGRGTLVTVSS
VL: EIVLTQSPATLSLSPGERATLSCRASQSVSSYLAWYQQKPGQAPRLLIYDASNRATGIPARFSGSGSGTDFTLTISSLEPEDFAVYYCQQRSNWLMYTFGQGTKLEIK
modifications: N-linked Fc glycans without fucosyl residues (high-mannose, complex and hybrid type)
EC50 for antibody internalization (Hum-Zap saporin conjugate, LNCaP cell viability) [1]: 0.49 nM

ADCC % lysis at 1 µg/ml antibody, no anti-CD16 antibody [1]: ~15%
ADCC EC50, 51Cr release, LNCaP-C42b targets, IL-2 stimulated effector cells [1]: 0.11 µg/mL
B4: anti-PSMA human monoclonal antibody 7F12 expressed in CHO cells (fucosylated) (antibody, human IgG1, V domains shown)
VH: B3 VH
VL: B3 VL
modifications: N-linked Fc glycans containing fucosyl residues
EC50 for antibody internalization (Hum-Zap saporin conjugate, LNCaP cell viability) [1]: 0.49 nM
